Series [1] can be described thus: CD thermal denaturation; protein alone, 2 µM dimer, ellipticity at 222 nm, heated from 6–85 °C, two-state fit; KD at 25 °C calculated from ΔGDi; dimer to monomers. To be noted: other: CD thermal denaturation.
The target of series [2] is bZIP10 DNA binding domain and leucine zipper region (V216-S301) (Arabidopsis thaliana). The series is described as above.
Series [3] shares this target. Description: native MS; ESI-MS in unbuffered MS grade water, 2 µM homodimer, 4 µM heterodimer mixtures, samples kept at 23 ± 2 °C, ion spray interface temperature switched off, declustering potential 10 V.
Series [4] deals with the molecule itself. Described as above.
The target in another series is Q9M1G6. Description: CD thermal denaturation; protein alone, 2 µM dimer, ellipticity at 222 nm, heated from 6–85 °C, two-state fit; KD at 25 °C calculated from ΔGDi; dimer to monomers. To be noted: other: CD thermal denaturation.
Series [5] deals with the molecule itself. Described as above.
The next series addresses Q9SJN0. The description is as above. To be noted: other: CD thermal denaturation.
The target in series [6] is T1, bZIP25 DNA binding domain and leucine zipper region (V230-S322) (Arabidopsis thaliana (Mouse-ear cress), UniProt Q9M1G6).
T1 chain: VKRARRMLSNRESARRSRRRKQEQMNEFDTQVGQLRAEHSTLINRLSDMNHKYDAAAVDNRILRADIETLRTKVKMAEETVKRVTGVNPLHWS
Description: CD thermal denaturation (222 nm) of equimolar mix versus sum curve, plus ESI-MS; absence of DNA; the paper concludes heterodimerization is DNA-mediated (synergistic reporter activation in protoplasts).

The target in the next series is Q9LZP8. Description: CD thermal denaturation; protein alone, 2 µM dimer, ellipticity at 222 nm, heated from 6–85 °C, two-state fit; KD at 25 °C calculated from ΔGDi; dimer to monomers. To be noted: other: CD thermal denaturation.

The values below come from paper PMC5662769, “A-ZIP53, a dominant negative reveals the molecular mechanism of heterodimerization between bZIP53, bZIP10 and bZIP25 involved in Arabidopsis seed maturation” (Scientific Reports, 2017).

The Kd is the concentration at which binding is half-saturated. The term stoichiometry N denotes the number of molecules, sites or subunits per partner or assembly.

Turning to “bZIP72 DNA binding domain and leucine zipper region (D48-T150)”, in [1], the dH (ΔHm, at Tm) was -57.3 kcal/mol.
On the same count and under the same terms, the figure for “bZIP10 DNA binding domain and leucine zipper region (V216-S301)” is -41.1 kcal/mol.
Turning to “bZIP10 DNA binding domain and leucine zipper region (V216-S301) (domain or fragment)”, in series [2], the Kd is 3 nM. For the same molecule, the stoichiometry N in [3] came to 2.

B1: bZIP25 DNA binding domain and leucine zipper region (V230-S322) (domain or fragment, Arabidopsis thaliana, UniProt Q9M1G6 230-322, looked up)
chain: T1 chain
notes: In the protoplast reporter assays the full-length protein was expressed from a plasmid; source: E. coli BL21 (DE-3), HPLC purified
For the molecule B1, in series [4], the “stoichiometry N” value was found to be 2. For the same molecule, in the series with Q9M1G6, the dH (ΔHm, at Tm) is -55.3 kcal/mol. Also, the dissociation constant Kd in [5] was 0.05 nM.

B2: bZIP39 DNA binding domain and leucine zipper region (V351-L442) (protein)
chain: VEKVVERRQRRMIKNRESAARSRARKQAYTVELEAELNQLKEENAQLKHALAELERKRKQQYFESLKSRAQPKLPKSNGRLRTLMRNPSCPL
Take B2: in the series with Q9SJN0, the dH (ΔHm, at Tm) is -43.2 kcal/mol.

B3: bZIP53 DNA binding domain and leucine zipper region (Y18-D116) (domain or fragment, Arabidopsis thaliana, UniProt Q9LZP8 18-116, looked up)
chain: YATVTDERKRKRMISNRESARRSRMRKQKQLGDLINEVTLLKNDNAKITEQVDEASKKYIEMESKNNVLRAQASELTDRLRSLNSVLEMVEEISGQALD
notes: An internal HindIII site of the amplicon was destroyed by site-directed mutagenesis; Measured monomer mass 12957 Da; In the protoplast reporter assays the full-length protein was expressed from a plasmid; also called basic leucine zipper 53; source: E. coli BL21 (DE-3), HPLC purified
In the case of B3, in series [4], the “stoichiometry N” value is 2. In series [6], the binding result was “no binding”. For the same molecule, the dH (ΔHm, at Tm) in the series with Q9LZP8 is -35.5 kcal/mol. In series [5], the Kd was 50 nM.
